Tests used:
[1] = target: T1, human 9-cis retinoic acid receptor RXRα (human, UniProt P19793 1-462); assay: electrophoretic mobility shift, hA240 probe; no complex with single receptors (FIG. 19B)
T1 construct: also called human RXRα
T1 sequence (looked up): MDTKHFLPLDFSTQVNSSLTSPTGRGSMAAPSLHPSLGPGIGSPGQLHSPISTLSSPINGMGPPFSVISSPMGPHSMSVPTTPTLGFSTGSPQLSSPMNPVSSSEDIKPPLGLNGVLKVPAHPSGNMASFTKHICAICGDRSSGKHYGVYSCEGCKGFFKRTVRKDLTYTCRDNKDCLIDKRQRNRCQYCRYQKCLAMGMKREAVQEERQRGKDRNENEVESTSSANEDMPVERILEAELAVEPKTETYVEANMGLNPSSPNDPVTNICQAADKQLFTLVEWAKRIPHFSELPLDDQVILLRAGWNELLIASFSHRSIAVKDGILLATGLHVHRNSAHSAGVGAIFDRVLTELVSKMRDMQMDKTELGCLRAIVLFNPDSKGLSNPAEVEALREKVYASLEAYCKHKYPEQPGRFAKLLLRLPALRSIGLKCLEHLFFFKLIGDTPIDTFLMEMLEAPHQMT
Excerpt: (§1) FIG. 19 depicts the results of an electrophoretic mobility shift assay, assaying the ability of human PXR and human CAR to bind to the hA174 and hA240 elements. Binding of these nuclear receptors happens in a heterodimeric state with the human 9-cis retinoic acid receptor RXRα. From expression plasmids encoding human RXRα, […] or CAR, receptor protein was made in vitro using the TNT reticulocyte lysate coupled transcription/translation system (Promega Corp.).
FIG. 19B: Instead of the hA174 fragment, wild-type or DR4-mutant hA240 fragment was radiolabeled and used as probe. Lanes 1-4: Wildtype hA240 was incubated with no receptor (mock transcription/translation) or with RXRα, PXR or CAR alone. No complex is observed using single receptors. Lanes 5 and 7: Wild-type hA240 was incubated with RXRα and PXR or RXRα and CAR, upon which complex formation between radiolabeled probe and protein is observed. Lanes 6 and 8: Same conditions as in lanes 5 and 7, but instead of wild-type probe, radiolabeled hA240DR4(2) mutant was used. No complex is formed.

CXR/RXR heterodimer [2] = target: T2, CXR/RXR heterodimer (Gallus gallus, UniProt A0A8V1AGS4;P28701 A0A8V1AGS4:1-375,P28701:1-467); assay: EMSA; supershifted by anti-RXR; 40 mM KCl, pH 8.0, poly(dI-dC), room temperature; conditions: tags: TNT T7 Quick Coupled; pSG5; label: 32P
T2 sequence (chain, as listed by the source): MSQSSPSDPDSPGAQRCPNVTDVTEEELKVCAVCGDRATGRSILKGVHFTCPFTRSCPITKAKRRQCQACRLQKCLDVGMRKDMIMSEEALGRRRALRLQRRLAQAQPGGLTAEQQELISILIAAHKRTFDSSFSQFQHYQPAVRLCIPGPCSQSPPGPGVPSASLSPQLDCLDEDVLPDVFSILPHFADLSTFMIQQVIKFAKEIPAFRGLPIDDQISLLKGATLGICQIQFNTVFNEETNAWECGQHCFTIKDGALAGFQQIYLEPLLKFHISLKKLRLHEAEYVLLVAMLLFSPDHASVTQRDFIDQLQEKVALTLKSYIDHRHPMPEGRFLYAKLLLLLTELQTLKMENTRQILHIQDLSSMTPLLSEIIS
Protocol: (§2) Radiolabelled ADRES wild type (lanes 1-5) and mutant. (lanes 6-7) sequences were incubated With in vitro transcribed/translated CXR (lanes 3-7), chicken RXR (lanes 2 and 4-7) and anti-RXR antibody (Lane 5 and 7), as indicated. Arrows depict the unbound probe, the shifted CXR-RXR-probe complex, and the supershifted CXR-RXR-probe-anti-RXR antibody complex;
(§3) Chicken CXR and RXR proteins were expressed using the TNT T7 Quick Coupled Translation System (Promega) according to the manufacturers protocol. Probes were labeled by Klenow reaction in the presence of radiolabeled [α-³²P]ATP and purified over a Biospin 6 chromatography column. A volume of labeled oligonucleotide corresponding to 100,000 cpm was used for each reaction in 10 mM Tris-HCL (8.0)/40 mM KCl/0.05% Nonidet P40′/6% glycerol (vol./vol.)/1 mM DTT containing 0.2 μg of poly(dI-dC) and 2.5 μl in-vitro synthesized proteins as described previously (2, 7). To test for supershifts, 0.5 μl monoclonal anti-mouse-RXR rabbit antibody (kindly provided by P. Chambon, Université Louis Pasteur, Illkirch, France) were added to the reaction mix. This antibody has been previously tested for interactions with chicken RXR in Western blots (data not shown). The reaction mix was incubated for 20 min at room temperature and electrophoresed on a 6% polyacrylamide gel in 0.5× Tris/borate/EDTA buffer followed by autoradiography.

RXR [3] = target: T3, RXR (Gallus gallus, UniProt P28701 P28701:1-467); assay: EMSA; RXR alone; conditions: tags: TNT T7 Quick Coupled; pSG5; label: 32P
T3 sequence: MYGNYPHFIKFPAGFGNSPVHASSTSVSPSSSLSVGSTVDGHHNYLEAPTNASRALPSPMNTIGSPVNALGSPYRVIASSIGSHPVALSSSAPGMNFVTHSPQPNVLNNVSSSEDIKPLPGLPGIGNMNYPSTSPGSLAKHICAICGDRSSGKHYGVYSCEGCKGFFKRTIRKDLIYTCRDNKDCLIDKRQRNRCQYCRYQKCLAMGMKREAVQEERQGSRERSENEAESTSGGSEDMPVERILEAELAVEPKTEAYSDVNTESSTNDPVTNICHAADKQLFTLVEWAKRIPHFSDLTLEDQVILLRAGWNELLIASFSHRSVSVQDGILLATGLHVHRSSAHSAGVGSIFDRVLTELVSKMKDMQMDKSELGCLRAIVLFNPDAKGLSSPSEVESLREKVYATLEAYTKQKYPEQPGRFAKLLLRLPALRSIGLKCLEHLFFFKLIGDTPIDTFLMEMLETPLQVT
Protocol: as §2, §3

CXR/RXR heterodimer [4] = target: T2, CXR/RXR heterodimer; assay: EMSA; binding virtually eliminated; conditions: tags: TNT T7 Quick Coupled; pSG5; label: 32P
Protocol: as §2, §3

PXR/RXRalpha heterodimer = PXR/RXRalpha heterodimer (Homo sapiens, UniProt O75469;P19793 O75469:1-434,P19793:1-462); assay: EMSA; conditions: tags: TNT reticulocyte lysate; label: radiolabel
Excerpt: as §1
(§4) Lanes 1-4: Wildtype hA174 was incubated with no receptor (mock transcription/translation) or with RXRα, PXR or CAR alone. No complex is observed using single receptors. Lanes 5 and 7: Wild-type hA174 was incubated with RXRα and PXR or RXRα and CAR, upon which complex formation between radiolabeled probe and protein is observed. Lanes 6 and 8: Same conditions as in lanes 5 and 7, but instead of wild-type hA174, a radiolabeled probe was used where the half-site 2 was mutated. No complex is formed anymore.

CAR/RXRalpha heterodimer = CAR/RXRalpha heterodimer (Homo sapiens, UniProt Q14994;P19793 Q14994:1-352,P19793:1-462); assay: EMSA; conditions: tags: TNT reticulocyte lysate; label: radiolabel
Excerpt: as §1, §4

CAR = target: T4, CAR (Homo sapiens, UniProt Q14994 Q14994:1-352); assay: EMSA; CAR alone; conditions: tags: TNT reticulocyte lysate; label: radiolabel
T4 sequence: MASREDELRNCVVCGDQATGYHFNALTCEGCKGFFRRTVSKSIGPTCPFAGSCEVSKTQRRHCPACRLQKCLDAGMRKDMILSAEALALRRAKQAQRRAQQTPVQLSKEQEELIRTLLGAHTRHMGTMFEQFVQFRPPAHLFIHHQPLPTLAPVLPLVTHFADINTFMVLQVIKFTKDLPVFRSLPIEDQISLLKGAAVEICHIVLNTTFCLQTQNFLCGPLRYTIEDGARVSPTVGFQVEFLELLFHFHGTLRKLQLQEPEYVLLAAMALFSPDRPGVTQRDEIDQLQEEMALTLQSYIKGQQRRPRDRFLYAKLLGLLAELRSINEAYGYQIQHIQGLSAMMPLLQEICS
Excerpt: as §1, §4

PXR = target: T5, PXR (Homo sapiens, UniProt O75469 O75469:1-434); assay: EMSA; PXR alone; conditions: tags: TNT reticulocyte lysate; label: radiolabel
T5 sequence: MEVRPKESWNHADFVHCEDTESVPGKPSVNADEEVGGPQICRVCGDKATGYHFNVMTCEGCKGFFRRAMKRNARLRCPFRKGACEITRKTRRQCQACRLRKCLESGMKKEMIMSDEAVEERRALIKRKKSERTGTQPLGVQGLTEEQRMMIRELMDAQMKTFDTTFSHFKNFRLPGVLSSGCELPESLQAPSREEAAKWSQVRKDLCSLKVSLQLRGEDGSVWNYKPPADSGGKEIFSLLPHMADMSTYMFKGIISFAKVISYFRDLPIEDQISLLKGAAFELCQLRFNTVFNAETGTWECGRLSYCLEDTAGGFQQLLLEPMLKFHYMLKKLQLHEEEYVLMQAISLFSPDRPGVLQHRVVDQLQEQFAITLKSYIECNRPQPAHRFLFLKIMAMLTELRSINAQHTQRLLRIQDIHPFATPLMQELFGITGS
Excerpt: as §1, §4

RXRalpha = RXRalpha (Homo sapiens, UniProt P19793 P19793:1-462); assay: EMSA; RXRalpha alone; conditions: tags: TNT reticulocyte lysate; label: radiolabel
Excerpt: as §1, §4

CXR/RXR heterodimer [5] = target: T2, CXR/RXR heterodimer; assay: EMSA; supershifted by anti-RXR; conditions: tags: TNT T7 Quick Coupled; pSG5; label: 32P
Protocol: as §2, with “mutant” for “mutant.”, “with” for “With”, “(lane” for “(Lane”
as §3

RXR [6] = target: T3, RXR; assay: EMSA; RXR alone; conditions: tags: TNT T7 Quick Coupled; pSG5; label: 32P; remark: listed apart in the source
Protocol: as §2, with “mutant” for “mutant.”, “with” for “With”, “(lane” for “(Lane”
as §3

B1: human pregnane X receptor (PXR) (receptor, UniProt O75469 1-434, looked up)
chain: T5 sequence
notes: also called human PXR; hPXR
binding result [1]: binds

B2: 176 bp ADRES (dsDNA)
DNA 1: GGGCTCCATCGGCCTCTTCAGGTTATTGCTATGTTCAACTCGTGTGACCTTCCTCCCTGTTTTCAAGGTTCTGATAACAAACTTCTAGGACAGCCTGGTGACCTTTGGCTCAGCTTCCTCTTTAAACTCCGGTGGCTTTTGCTTCATTGCCTAGTTGTTACCCAGCAGTAAAGATC
DNA 2: GATCTTTACTGCTGGGTAACAACTAGGCAATGAAGCAAAAGCCACCGGAGTTTAAAGAGGAAGCTGAGCCAAAGGTCACCAGGCTGTCCTAGAAGTTTGTTATCAGAACCTTGAAAACAGGGAGGAAGGTCACACGAGTTGAACATAGCAATAACCTGAAGAGGCCGATGGAGCCC
binding result (CXR/RXR heterodimer [2]): binds | binding result (RXR [3]): no binding

B3: 176 bp ADRES DR4-1/DR5 double mutant (dsDNA)
DNA 1: GGGCTCCATCGGCCTCTTCAGGTTATTGCTATGTTGGTATCGTGTCGAGTTCCTCCCTGTTTTCAAGGTTCTGATAACAAACTTCTAGGACAGCCTGGCTGCAGTTGGCGAATTCTCCTCTTTAAACTCCGGTGGCTTTTGCTTCATTGCCTAGTTGTTACCCAGCAGTAAAGATC
DNA 2: GATCTTTACTGCTGGGTAACAACTAGGCAATGAAGCAAAAGCCACCGGAGTTTAAAGAGGAGAATTCGCCAACTGCAGCCAGGCTGTCCTAGAAGTTTGTTATCAGAACCTTGAAAACAGGGAGGAACTCGACACGATACCAACATAGCAATAACCTGAAGAGGCCGATGGAGCCC
binding result (CXR/RXR heterodimer [4]): no binding

B4: hA174 (dsDNA)
DNA 1: GCGCAAAGTCAACACAAGCCTCTCCACCGTGTGTCCATGTTTATGTGTATGCGCTGTGCCCCGTCATGCCACCTGGACGCAGGGACTCCAGTGACCTCTCCTTGCACAAGCCTCTGCTGGTTTGGGAAAGATTGGCATGACATCAGCCAAGCTCTGGCCTTGCCTTTTTTCCCT
DNA 2: AGGGAAAAAAGGCAAGGCCAGAGCTTGGCTGATGTCATGCCAATCTTTCCCAAACCAGCAGAGGCTTGTGCAAGGAGAGGTCACTGGAGTCCCTGCGTCCAGGTGGCATGACGGGGCACAGCGCATACACATAAACATGGACACACGGTGGAGAGGCTTGTGTTGACTTTGCGC
binding result (PXR/RXRalpha heterodimer): binds | binding result (CAR/RXRalpha heterodimer): binds | binding result (CAR): no binding | binding result (PXR): no binding | binding result (RXRalpha): no binding

B5: 167 bp ADRES (dsDNA)
DNA 1: CTGCCTCCAGTCCTGAACTTTCTCTGCTGGGATGAGCAGAGTTCACGCTCGGCTGAACTCGTGACTGTGTCAACAGGGGGCATGAAGATCAGCACCAGGCAAAGGTGAGCGGAGTGCACAAGAATGAGGCAGAGACCTTTGGGACAAAGAGTTCCCCACCCGTGGGG
DNA 2: CCCCACGGGTGGGGAACTCTTTGTCCCAAAGGTCTCTGCCTCATTCTTGTGCACTCCGCTCACCTTTGCCTGGTGCTGATCTTCATGCCCCCTGTTGACACAGTCACGAGTTCAGCCGAGCGTGAACTCTGCTCATCCCAGCAGAGAAAGTTCAGGACTGGAGGCAG
binding result (CXR/RXR heterodimer [5]): binds | binding result (RXR [6]): no binding

Source: patent US20050118601A1, “Enhancer sequence of the 5-aminolevulinic acid synthase gene” (priority 2002, published 2005)
